Results on one substance are retold here after paper PMC9276969.

The assay addresses V5-tagged L. vannamei STAT (Litopenaeus vannamei). In words: native gel or EMSA; S2 cells co-transfected with pAc5.1-STAT and pAc5.1-PTPN6 or pAc5.1-GFP (control); lysed in Pierce IP Lysis buffer at 48 h; 10% native PAGE, Western blot with antibody against shrimp STAT; dimer and monomer bands.

As usually defined, the stoichiometry N is a count of units in the complex or per binding partner. Regarding “V5-tagged L. vannamei STAT (natural protein)”, the stoichiometry N was 2.
